The numbers were not newly measured in article PMC10054347, which cites them from elsewhere.

Series [1] has as its target T1, RNA-binding protein Hfq (YmaH) K2E (Bacillus subtilis (strain 168)) (UniProt O31796).
T1 sequence: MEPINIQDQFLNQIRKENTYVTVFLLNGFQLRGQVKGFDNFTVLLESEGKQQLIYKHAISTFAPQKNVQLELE
The series is described as follows: EMSA. In general terms: A gel shift assay detects complexes by their altered migration in electrophoresis.

Series [2] addresses CD63 large extracellular loop (Homo sapiens (Human)) (UniProt P08962). In words: ELONA. As to conditions: binding buffer, 37 C, 1 h; protein adsorbed on plate.
The target of series [3] is alpha-thrombin (light + heavy chain) (Homo sapiens (Human)) (UniProt P00734+P00734). In words: SPR. The following applies: 2'-F pyrimidines; 10 mM HEPES-KOH pH 7.5, 100 mM KCl; protein amine-coupled on CM5, BSA reference.
Series [4] has as its target T2, Epithelial cell adhesion molecule (EpCAM) (Homo sapiens (Human)) (UniProt P16422).
T2 sequence: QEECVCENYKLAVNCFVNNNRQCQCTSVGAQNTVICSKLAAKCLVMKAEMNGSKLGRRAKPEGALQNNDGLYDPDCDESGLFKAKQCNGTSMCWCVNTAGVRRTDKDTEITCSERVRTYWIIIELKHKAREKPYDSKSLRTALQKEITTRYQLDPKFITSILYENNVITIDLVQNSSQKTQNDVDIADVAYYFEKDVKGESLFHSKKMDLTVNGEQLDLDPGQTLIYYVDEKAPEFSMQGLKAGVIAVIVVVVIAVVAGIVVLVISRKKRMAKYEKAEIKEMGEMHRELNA
The series is described as follows: flow. The following applies: DPBS, 4.5 g/L glucose, 5 mM MgCl2, 10% FBS, 37 C; HepG2 cells overexpressing EpCAM.

For series [5], the target named is PDGFR-alpha ectodomain (human) (Homo sapiens (Human)) (UniProt P16234). The series is described as follows: SPR. The following applies: 2'-F pyrimidines; 30 mM Tris-HCl pH 7.5, 150 mM NaCl, 5 mM MgCl2; aptamer on SA chip.
For series [6], the target named is T3, Aspartyl/asparaginyl beta-hydroxylase, human (Homo sapiens (Human)) (UniProt Q12797).
T3 sequence: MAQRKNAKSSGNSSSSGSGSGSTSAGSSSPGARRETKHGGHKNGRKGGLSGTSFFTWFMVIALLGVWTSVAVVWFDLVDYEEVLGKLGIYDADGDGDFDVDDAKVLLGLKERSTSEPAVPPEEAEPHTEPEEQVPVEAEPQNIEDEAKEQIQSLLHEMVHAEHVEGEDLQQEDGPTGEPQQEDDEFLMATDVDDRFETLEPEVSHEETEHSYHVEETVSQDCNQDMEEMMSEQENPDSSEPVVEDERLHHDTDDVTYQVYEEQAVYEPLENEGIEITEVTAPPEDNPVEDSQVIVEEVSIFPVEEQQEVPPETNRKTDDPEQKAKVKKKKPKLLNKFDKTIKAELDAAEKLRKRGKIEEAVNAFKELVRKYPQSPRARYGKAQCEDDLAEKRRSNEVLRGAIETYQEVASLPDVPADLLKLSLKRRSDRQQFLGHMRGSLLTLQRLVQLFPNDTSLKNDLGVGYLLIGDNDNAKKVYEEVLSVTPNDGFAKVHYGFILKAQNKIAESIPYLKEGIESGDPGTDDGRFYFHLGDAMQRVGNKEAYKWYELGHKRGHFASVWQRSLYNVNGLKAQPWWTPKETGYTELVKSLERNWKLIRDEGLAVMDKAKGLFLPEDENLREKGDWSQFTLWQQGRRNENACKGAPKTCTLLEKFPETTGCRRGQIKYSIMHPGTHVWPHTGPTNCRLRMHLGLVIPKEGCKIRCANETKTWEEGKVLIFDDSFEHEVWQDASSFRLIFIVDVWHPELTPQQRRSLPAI
The series is described as follows: flow. As to conditions: HeLa-ASPH cells; DPBS, 5 mM MgCl2, glucose, BSA, tRNA.

Series [7] addresses Integrin alpha5 beta1 ectodomain (Homo sapiens (Human)) (UniProt P08648+P05556). The series is described as follows: SPR. As to conditions: 2'-F pyrimidines; PBS 10 mM, 150 mM NaCl, 1 mM MgCl2, 0.005% P20, 25 C.
Series [8] addresses PD-L1 (human) (Homo sapiens (Human)) (UniProt Q9NZQ7). In words: flow. As to conditions: MDA-MB-231 PD-L1 over-expressing cells, 4 C, 1 h.
Series [9] concerns the target Double homeobox protein 4 (human), full length (Homo sapiens (Human)) (UniProt Q9UBX2). In words: FP. As to conditions: hairpin with CCC bulge.
For series [10], the target named is Lactoferrin (bovine milk) (Bos taurus (Bovine)) (UniProt P24627). The series is described as follows: SPR. (In general: SPR reads the build-up and loss of mass on a sensor chip optically.)
For series [11], the target named is T4, SIRT1, human (Homo sapiens (Human)) (UniProt Q96EB6).
T4 sequence: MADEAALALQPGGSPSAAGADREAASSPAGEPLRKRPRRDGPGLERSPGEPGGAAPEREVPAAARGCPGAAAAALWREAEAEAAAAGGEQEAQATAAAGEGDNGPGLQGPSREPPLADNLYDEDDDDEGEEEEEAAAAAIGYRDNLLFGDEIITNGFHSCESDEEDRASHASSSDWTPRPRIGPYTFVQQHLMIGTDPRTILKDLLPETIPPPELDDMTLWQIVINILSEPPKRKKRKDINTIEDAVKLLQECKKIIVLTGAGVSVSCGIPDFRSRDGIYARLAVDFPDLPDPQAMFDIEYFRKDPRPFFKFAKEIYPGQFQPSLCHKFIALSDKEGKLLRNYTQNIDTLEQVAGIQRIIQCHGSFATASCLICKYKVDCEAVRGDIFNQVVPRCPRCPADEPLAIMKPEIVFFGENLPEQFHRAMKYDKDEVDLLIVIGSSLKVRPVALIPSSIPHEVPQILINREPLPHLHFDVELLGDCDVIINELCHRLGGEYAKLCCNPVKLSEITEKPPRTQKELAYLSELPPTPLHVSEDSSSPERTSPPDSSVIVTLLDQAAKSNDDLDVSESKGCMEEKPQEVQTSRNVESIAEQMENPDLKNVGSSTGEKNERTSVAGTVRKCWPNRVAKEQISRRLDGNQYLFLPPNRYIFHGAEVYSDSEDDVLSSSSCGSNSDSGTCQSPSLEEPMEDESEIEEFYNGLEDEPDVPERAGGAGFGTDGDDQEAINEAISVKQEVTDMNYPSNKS
The series is described as follows: SPR. The following applies: circular (ligated 40-mer, ESI Fig 4); 100 mM NaCl, 5 mM MgCl2, pH 7.4, 25 C.

In series [12] the target is T5, FGFR3b ectodomain, human (Homo sapiens (Human)) (UniProt P22607).
T5 sequence: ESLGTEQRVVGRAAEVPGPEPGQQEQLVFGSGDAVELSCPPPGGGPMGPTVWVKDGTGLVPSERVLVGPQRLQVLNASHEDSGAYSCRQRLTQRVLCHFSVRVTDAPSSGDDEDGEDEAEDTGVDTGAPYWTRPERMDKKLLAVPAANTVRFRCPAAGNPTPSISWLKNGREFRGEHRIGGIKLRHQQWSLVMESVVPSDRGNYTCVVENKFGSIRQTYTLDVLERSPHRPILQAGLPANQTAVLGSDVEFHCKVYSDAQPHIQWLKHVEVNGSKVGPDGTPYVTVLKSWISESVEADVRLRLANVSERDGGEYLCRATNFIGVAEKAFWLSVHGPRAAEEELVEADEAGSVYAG
The series is described as follows: flow. As to conditions: 2'-F pyrimidines; 3'-inverted dT (not in strands); 5'-thiol; protein on protein G beads; DPBS / FACS buffer, 1 h, 37 C; apparent Kd.

Series [13] addresses T6, FGFR3c ectodomain, mouse (Mus musculus (Mouse)) (UniProt Q61851).
T6 sequence: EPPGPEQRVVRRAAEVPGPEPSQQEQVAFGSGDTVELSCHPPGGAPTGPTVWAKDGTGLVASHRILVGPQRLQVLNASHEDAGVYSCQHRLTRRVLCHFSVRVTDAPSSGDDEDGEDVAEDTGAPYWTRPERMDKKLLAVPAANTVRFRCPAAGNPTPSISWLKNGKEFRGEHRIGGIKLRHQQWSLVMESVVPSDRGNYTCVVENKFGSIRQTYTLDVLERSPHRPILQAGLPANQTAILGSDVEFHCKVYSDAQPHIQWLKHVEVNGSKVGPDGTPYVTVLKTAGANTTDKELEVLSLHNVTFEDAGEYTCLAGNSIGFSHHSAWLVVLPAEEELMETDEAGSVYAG
In words: flow. The following applies: 2'-F pyrimidines; 3'-inverted dT (not in strands); 5'-thiol; protein on protein G beads; DPBS / FACS buffer, 1 h, 37 C; apparent Kd.

Series [14] concerns the target MMP14 (MT1-MMP) (Homo sapiens (Human)) (UniProt P50281). In words: flow. As to conditions: 293T-MMP14 cells; PBS, 10% FCS, 0.02% NaN3, 37 C, 30 min.
Series [15] has as its target T7, NELF-E (Drosophila) (Drosophila melanogaster (Fruit fly)) (UniProt P92204).
T7 sequence: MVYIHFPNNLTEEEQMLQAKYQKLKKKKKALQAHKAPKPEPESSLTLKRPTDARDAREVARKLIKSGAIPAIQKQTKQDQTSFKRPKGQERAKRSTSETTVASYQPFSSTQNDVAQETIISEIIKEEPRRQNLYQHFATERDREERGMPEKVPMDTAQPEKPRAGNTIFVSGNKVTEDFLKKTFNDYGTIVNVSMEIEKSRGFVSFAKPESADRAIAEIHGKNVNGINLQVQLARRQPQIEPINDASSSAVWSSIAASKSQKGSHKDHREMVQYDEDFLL
The following applies: HiTS-RAP; 10 mM HEPES pH 7.5, 100 mM NaCl, 25 mM KCl, 5 mM MgCl2, 0.02% Tween-20, RT.

Series [16] has as its target TGF-beta1 (mature) (Homo sapiens (Human)) (UniProt P01137). The series is described as follows: SPR. The following applies: 2'-F pyrimidines; 10 mM HEPES-KOH pH 7.5, 100 mM KCl; protein amine-coupled on CM5, BSA reference.
Series [17] deals with T8, C5a anaphylatoxin (mouse) (Mus musculus (Mouse)) (UniProt P06684).
T8 sequence: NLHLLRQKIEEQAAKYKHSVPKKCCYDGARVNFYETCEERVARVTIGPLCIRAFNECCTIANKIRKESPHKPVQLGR
In words: SPR. As to conditions: all L-RNA (Spiegelmer); 5' 40 kDa branched PEG via aminohexyl linker.

For series [18], the target named is T9, C5a anaphylatoxin (human) (Homo sapiens (Human)) (UniProt P01031).
T9 sequence: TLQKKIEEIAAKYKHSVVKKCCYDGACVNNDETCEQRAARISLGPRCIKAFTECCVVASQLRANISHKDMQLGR
In words: SPR. As to conditions: all L-RNA (Spiegelmer); 5' 40 kDa branched PEG via aminohexyl linker.

Double homeobox protein 4 (human), full length (Homo sapiens (Human)), sequence (Q9UBX2 whole entry): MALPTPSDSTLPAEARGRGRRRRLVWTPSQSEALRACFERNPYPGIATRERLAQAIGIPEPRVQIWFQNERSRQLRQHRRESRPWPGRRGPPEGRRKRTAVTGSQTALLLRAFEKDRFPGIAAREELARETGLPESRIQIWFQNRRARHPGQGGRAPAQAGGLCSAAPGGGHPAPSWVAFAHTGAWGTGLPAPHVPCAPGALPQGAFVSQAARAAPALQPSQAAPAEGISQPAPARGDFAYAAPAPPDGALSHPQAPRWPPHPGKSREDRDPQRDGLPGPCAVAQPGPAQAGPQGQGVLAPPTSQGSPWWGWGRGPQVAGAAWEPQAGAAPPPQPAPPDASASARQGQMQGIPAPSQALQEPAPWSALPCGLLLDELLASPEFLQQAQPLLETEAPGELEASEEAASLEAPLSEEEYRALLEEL
PDGFR-alpha ectodomain (human) (Homo sapiens (Human)), sequence (P16234 24-524): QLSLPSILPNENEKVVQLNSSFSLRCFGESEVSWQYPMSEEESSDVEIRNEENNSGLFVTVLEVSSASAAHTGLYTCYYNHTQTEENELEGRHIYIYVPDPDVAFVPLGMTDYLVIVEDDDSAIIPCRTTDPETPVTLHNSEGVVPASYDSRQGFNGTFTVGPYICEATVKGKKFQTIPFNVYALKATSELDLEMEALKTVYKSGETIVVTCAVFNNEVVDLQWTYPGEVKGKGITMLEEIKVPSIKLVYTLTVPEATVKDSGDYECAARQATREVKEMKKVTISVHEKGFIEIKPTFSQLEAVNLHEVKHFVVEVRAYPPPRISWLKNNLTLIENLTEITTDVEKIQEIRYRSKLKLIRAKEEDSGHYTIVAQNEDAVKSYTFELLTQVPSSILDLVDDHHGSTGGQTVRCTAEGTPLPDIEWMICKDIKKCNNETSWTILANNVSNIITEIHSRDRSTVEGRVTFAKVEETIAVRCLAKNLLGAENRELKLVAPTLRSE
CD63 large extracellular loop (Homo sapiens (Human)), sequence (P08962 103-203): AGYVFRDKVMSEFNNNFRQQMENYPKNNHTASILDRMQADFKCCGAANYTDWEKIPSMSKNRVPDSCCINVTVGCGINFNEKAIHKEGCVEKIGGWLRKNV
TGF-beta1 (mature) (Homo sapiens (Human)), sequence (P01137 279-390): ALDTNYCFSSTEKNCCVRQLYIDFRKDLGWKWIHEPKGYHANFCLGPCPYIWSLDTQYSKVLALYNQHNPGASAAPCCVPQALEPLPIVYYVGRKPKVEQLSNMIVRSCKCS
Integrin alpha5 beta1 ectodomain (Homo sapiens (Human)), sequence (P08648 42-995, chain 1 of 2): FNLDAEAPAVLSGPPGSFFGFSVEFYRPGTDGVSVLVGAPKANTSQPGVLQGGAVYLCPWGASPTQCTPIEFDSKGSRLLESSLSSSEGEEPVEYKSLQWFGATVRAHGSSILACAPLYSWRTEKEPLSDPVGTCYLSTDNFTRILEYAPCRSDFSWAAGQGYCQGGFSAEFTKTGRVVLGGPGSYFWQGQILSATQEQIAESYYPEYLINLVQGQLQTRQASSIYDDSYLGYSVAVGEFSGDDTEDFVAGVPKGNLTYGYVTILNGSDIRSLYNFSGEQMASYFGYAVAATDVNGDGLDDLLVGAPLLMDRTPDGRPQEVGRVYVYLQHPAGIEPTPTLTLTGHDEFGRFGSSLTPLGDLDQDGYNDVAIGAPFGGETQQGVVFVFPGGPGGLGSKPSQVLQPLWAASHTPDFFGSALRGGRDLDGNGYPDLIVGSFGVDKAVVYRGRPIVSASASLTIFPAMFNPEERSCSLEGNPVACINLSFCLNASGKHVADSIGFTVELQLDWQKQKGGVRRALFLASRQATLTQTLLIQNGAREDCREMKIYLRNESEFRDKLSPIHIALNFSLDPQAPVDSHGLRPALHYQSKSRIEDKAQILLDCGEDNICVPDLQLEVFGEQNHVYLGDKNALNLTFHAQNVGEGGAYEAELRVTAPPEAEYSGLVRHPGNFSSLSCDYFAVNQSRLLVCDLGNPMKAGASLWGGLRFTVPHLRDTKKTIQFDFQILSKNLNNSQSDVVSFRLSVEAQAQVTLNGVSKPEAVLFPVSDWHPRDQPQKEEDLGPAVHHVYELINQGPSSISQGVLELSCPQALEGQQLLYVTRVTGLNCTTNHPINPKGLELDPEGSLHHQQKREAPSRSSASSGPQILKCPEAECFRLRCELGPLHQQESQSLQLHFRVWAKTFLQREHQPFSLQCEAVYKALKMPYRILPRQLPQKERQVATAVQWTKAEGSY
Integrin alpha5 beta1 ectodomain (Homo sapiens (Human)), sequence (P05556 21-728, chain 2 of 2): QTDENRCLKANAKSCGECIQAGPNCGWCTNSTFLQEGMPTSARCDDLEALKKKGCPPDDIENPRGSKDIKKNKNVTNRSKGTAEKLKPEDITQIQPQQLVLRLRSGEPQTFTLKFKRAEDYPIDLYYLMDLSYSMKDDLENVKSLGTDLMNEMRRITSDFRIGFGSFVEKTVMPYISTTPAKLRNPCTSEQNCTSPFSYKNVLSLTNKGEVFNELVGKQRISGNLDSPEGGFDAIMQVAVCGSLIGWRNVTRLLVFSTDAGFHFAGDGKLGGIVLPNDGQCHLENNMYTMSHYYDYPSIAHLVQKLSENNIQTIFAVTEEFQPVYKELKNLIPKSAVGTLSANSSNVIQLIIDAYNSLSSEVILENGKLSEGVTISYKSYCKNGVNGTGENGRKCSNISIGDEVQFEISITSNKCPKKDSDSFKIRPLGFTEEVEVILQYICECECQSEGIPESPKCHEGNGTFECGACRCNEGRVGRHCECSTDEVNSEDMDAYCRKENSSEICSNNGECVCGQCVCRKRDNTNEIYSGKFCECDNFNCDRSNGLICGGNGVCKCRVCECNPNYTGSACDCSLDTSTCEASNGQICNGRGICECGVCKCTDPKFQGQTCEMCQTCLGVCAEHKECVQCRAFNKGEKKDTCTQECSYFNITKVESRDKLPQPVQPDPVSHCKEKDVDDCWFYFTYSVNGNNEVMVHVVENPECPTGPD
PD-L1 (human) (Homo sapiens (Human)), sequence (Q9NZQ7 19-290): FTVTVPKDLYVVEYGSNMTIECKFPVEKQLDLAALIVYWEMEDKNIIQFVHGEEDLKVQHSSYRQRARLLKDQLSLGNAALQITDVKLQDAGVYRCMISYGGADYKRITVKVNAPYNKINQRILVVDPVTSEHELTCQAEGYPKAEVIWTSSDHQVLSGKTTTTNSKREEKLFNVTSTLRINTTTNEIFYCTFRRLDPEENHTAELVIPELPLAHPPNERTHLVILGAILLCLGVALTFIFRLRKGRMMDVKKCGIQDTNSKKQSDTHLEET
Lactoferrin (bovine milk) (Bos taurus (Bovine)), sequence (P24627 20-708): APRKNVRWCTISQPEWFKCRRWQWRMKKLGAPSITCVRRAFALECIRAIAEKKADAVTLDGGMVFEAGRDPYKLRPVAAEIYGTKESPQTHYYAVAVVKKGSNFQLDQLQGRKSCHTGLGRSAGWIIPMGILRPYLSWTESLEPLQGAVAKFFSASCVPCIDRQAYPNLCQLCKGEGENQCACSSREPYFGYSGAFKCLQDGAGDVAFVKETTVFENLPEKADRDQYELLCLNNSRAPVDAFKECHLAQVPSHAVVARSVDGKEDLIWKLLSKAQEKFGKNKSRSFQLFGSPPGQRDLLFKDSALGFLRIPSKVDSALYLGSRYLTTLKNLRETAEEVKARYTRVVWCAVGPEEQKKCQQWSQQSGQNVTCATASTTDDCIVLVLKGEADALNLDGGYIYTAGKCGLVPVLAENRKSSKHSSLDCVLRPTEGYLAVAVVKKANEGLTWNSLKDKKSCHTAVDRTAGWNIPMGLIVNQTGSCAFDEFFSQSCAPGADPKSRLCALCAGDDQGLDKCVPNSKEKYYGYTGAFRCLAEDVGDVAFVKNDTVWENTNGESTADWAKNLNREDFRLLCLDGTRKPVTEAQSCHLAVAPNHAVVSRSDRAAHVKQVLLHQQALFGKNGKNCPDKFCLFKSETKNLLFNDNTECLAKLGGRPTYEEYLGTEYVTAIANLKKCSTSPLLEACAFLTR

For “GGGACACAAUGGACGUAGAGAGAGAUUAGAUCCUGUCCGCGGCUAUAACGGCCGACAUGAGAG [m49f]”, in series [1], the Kd is 10 nM. Consider “GCTGGACTCACCTCGACCAGAGCCATTGGGTTTCCTAGGAAATAGGGCCTTTACTATGAGCGAGCCTGGCG [LL4A]”, for which the Kd in [2] was 84.6 nM. Take “CCUUUGGUUCGGAUAAUUAUUAAGUAUUGUCUUCAUUCA [Tbn#3]”: the Kd in series [3] is 1.4 nM. For “AACAGAGGGACAAACGGGGGAAGATTTGACGTCGACGACA [EP166]”, the Kd in [4] was 5480 nM. As for “GGGAGAGCGGAAGCGUGCUGGGCCUGCUCUUUAAUAAACCCACUUUCGAACAUCAGCGUAUGUCCAUAACCCAGAGGUGAUGGAUCCCCC [PDR3]”, in series [5], the Kd was 0.25 nM. With “ATACCAGCTTATTCAATTCGGGACAAGACAACGAACGAACAGGAAGAGAACCGGAATGCAGACGTCAGGGAGATAGTAAGTGCAATCT [AP-Cell 1]”, in series [6], the Kd is 47.5 nM. For the sequence “GGUUACCAGCCUUCACUGCGGACGGACAGAGAGUGCAACCUGCCGUGCCGCACCACGGUCGGUCACAC [H02-2'F]”, the Kd in [7] was 72 nM. Turning to “ACCGACCGTGCTGGACTCATCTCGCTTTTTTCACGGTCCACACTACTATGAGCGAGCCTGGCG [XQ-P3]”, in series [8], the Kd is 15.4 nM.

For “AGCTAACTTAATCAACCGCAGGTTGATTAACCCGTTAGC [DUX4_CTT_R7CCC]”, the Kd in [9] is 20 nM. As for “GCAGGACACCGTAACACGGGCTGATGCTCTCTTTATTTTACCTAAATAAAGTGTCCTGC [YFL-4 (Lac-A1), truncated 59-mer]”, in series [10], the Kd was 0.953 nM. As for “CGAGTGGGTTACATCGAAACTGGATCTCAACAGCGGTAAC [AC3 (C3)]”, the Kd in [11] was 0.27 nM. Consider “GCCGAUGGUUUUGUGGCCGUUUGAGGUUCCUACGGC [iR3]”, for which the figures for the Kd in [12] and in series [13] were 48 nM and 36.6 nM, respectively. As to “AGGGCCCGACGTGACGGCACGTCGGATATCTCATGCGTGT [M17]”, the Kd in series [14] is 4.98 nM.

As to “GGGAAUGGAUCCACAUCUACGAAUUCCCAACGACUGCCGAGCGAGAUUACGCUUGAGCGCCCCACUGAGGAUGCCCACGGGCGAUUGGGGCACGGCUUCACUGCAGACUUGACGAAGCUU [NELFapt (full length)]”, the Kd in series [15] was 5.2 nM.

With “UGGUAAUUUGUCGUUUAUACGGGUCCUCGCAUCUUCCUA [TGF#2 (probable)]”, the Kd in [16] was 10 nM. Regarding “GCCUGAUGUGGUGGUGAAGGGUUGUUGGGUGUCGACGCACAGGC [NOX-D19]”, the Kd is 0.051 nM in [17] and 1.39 nM in [18].
